Measurements taken from paper PMC3089482 (Nucleic Acids Research, 2011).

Molecular target: T1, Archaeoglobus fulgidus PCNA (Archaeoglobus fulgidus, UniProt O29912)
T1 sequence: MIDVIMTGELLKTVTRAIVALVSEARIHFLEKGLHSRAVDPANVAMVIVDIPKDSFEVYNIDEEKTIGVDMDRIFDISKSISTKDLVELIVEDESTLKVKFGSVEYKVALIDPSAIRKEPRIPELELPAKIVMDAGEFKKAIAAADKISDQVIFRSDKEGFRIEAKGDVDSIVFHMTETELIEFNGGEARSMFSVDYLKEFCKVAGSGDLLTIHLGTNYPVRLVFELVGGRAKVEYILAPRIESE
Test: pull-down

B1: GST-RNase HII hinge deletion mutant (ΔSNLR) (enzyme)
chain: MKAGIDEAGKGCVIGPLVVAGVACSDEDRLRKLGVKDSKKLSQGRREELAEEIRKICRTEVLKVSPENLDERMAAKTINEILKECYAEIILRLKPEIAYVDSPDVIPERLSRELEEITGLRVVAEHKADEKYPLVAAASIIAKVEREREIERLKEKFGDFGSGYASDPRTREVLKEWIASGRIPSCVRMRWKTVQKTLDDF
binding result: binds
